Assay results: article PMC5827659

Experiments:
Test in all cases: FRET (FIRE system)
[1] = biological target: FIRE construct Y-TMG-/C-TMG-CC1α1α2 R304K, Q13586-1; conditions: HEK 293 cells; n=18; parent: est. 0.077; read off a plot
[2] = biological target: FIRE construct Y-TMG-/C-TMG-CC1 L251S R304W, Q13586-1; conditions: HEK 293 cells; n=39; parent: est. 0.084; read off a plot
[3] = biological target: FIRE construct Y-TMG-/C-TMG-CC1α1α2 L251S R304W, Q13586-1; conditions: HEK 293 cells; n=9; parent: est. 0.077; read off a plot
Sequence of FIRE construct Y-TMG-/C-TMG-CC1α1α2 L251S R304W, Q13586-1 (Q13586 whole entry L251S/R304W, looked up): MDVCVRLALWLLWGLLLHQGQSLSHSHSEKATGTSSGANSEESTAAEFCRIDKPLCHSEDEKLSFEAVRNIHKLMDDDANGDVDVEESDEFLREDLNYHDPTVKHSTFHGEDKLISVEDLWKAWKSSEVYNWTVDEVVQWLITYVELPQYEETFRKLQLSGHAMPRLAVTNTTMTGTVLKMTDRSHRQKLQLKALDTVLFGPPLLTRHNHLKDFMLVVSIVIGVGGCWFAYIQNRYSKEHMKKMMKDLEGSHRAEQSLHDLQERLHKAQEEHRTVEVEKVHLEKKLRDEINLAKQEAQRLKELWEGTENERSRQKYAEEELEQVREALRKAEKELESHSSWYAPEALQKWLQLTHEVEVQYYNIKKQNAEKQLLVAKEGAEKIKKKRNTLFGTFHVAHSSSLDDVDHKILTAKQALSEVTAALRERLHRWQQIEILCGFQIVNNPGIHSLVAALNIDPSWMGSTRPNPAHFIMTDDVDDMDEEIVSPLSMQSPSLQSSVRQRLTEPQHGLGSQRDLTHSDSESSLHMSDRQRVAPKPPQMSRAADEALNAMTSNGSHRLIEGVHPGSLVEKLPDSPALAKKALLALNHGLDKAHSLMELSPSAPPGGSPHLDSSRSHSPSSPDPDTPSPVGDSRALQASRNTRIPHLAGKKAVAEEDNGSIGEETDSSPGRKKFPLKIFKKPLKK

[4] = biological target: FIRE construct Y-TMG-/C-TMG-CC1 R304K, Q13586-1; conditions: HEK 293 cells; n=52; parent: est. 0.084; read off a plot
Sequence of FIRE construct Y-TMG-/C-TMG-CC1 R304K, Q13586-1 (Q13586 whole entry R304K, looked up): as the sequence (Q13586 whole entry L251S/R304W, looked up) above, with S251L, W304K counted along it

Sequence of FIRE construct Y-TMG-/C-TMG-CC1α1α2 R304K, Q13586-1 (Q13586 whole entry R304K, looked up): as the sequence (Q13586 whole entry L251S/R304W, looked up) above, with S251L, W304K counted along it
Sequence of FIRE construct Y-TMG-/C-TMG-CC1 L251S R304W, Q13586-1 (Q13586 whole entry L251S/R304W, looked up): as the sequence (Q13586 whole entry L251S/R304W, looked up) above

**Q.** With “FIRE construct Y-TMG-/C-TMG-CC1α1α2 (STIM1 233–309) wild type (from UniProt Q13586-1) R304K” as the substance, how does the response [1] read?
**A.** 0.06 Eapp

**Q.** For “FIRE construct Y-TMG-/C-TMG-CC1 (STIM1 CC1 233–343) wild type (from UniProt Q13586-1) L251S; R304W”, which response [2] is on record?
**A.** 0.096 Eapp

**Q.** With “FIRE construct Y-TMG-/C-TMG-CC1α1α2 (STIM1 233–309) wild type (from UniProt Q13586-1) L251S; R304W” as the substance, how does the response [3] read?
**A.** 0.091 Eapp

**Q.** “FIRE construct Y-TMG-/C-TMG-CC1 (STIM1 CC1 233–343) wild type (from UniProt Q13586-1) R304K” was tested. Which response [4] did it give?
**A.** 0.074 Eapp
